# Test results as given in IntAct's records for PubMed 22430200.
# B1: E3 ubiquitin-protein ligase RNF31 (Homo sapiens), Q96EP0 (parent)
# chain: MPGEEEERAFLVAREELASALRRDSGQAFSLEQLRPLLASSLPLAARYLQLDAARLVRCNAHGEPRNYLNTLSTALNILEKYGRNLLSPQRPRYWRGVKFNNPVFRSTVDAVQGGRDVLRLYGYTEEQPDGLSFPEGQEEPDEHQVATVTLEVLLLRTELSLLLQNTHPRQQALEQLLEDKVEDDMLQLSEFDPLLREIAPGPLTTPSVPGSTPGPCFLCGSAPGTLHCPSCKQALCPACDHLFHGHPSRAHHLRQTLPGVLQGTHLSPSLPASAQPRPQSTSLLALGDSSLSSPNPASAHLPWHCAACAMLNEPWAVLCVACDRPRGCKGLGLGTEGPQGTGGLEPDLARGRWACQSCTFENEAAAVLCSICERPRLAQPPSLVVDSRDAGICLQPLQQGDALLASAQSQVWYCIHCTFCNSSPGWVCVMCNRTSSPIPAQHAPRPYASSLEKGPPKPGPPRRLSAPLPSSCGDPEKQRQDKMREEGLQLVSMIREGEAAGACPEEIFSALQYSGTEVPLQWLRSELPYVLEMVAELAGQQDPGLGAFSCQEARRAWLDRHGNLDEAVEECVRTRRRKVQELQSLGFGPEEGSLQALFQHGGDVSRALTELQRQRLEPFRQRLWDSGPEPTPSWDGPDKQSLVRRLLAVYALPSWGRAELALSLLQETPRNYELGDVVEAVRHSQDRAFLRRLLAQECAVCGWALPHNRMQALTSCECTICPDCFRQHFTIALKEKHITDMVCPACGRPDLTDDTQLLSYFSTLDIQLRESLEPDAYALFHKKLTEGVLMRDPKFLWCAQCSFGFIYEREQLEATCPQCHQTFCVRCKRQWEEQHRGRSCEDFQNWKRMNDPEYQAQGLAMYLQENGIDCPKCKFSYALARGGCMHFHCTQCRHQFCSGCYNAFYAKNKCPEPNCRVKKSLHGHHPRDCLFYLRDWTALRLQKLLQDNNVMFNTEPPAGARAVPGGGCRVIEQKEVPNGLRDEACGKETPAGYAGLCQAHYKEYLVSLINAHSLDPATLYEVEELETATERYLHVRPQPLAGEDPPAYQARLLQKLTEEVPLGQSIPRRRK
# Variants of: B1
# Details: with hoil1_human RBCK1, Q9BYM8
# hoil1_human RBCK1, Q9BYM8, sequence (Q9BYM8 whole entry): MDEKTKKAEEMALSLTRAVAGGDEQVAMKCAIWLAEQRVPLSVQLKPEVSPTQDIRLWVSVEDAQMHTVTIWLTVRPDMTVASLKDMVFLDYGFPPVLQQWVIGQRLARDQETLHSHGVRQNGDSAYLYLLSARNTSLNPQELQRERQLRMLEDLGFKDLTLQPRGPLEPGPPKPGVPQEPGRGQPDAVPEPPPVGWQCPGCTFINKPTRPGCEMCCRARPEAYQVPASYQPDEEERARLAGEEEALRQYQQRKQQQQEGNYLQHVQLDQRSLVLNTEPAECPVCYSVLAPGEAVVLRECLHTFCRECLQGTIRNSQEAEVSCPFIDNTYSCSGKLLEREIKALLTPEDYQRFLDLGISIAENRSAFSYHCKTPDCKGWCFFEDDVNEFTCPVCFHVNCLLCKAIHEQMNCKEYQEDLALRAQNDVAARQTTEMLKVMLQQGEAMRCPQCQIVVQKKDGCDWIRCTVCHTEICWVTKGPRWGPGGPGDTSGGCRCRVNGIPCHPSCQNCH
row,Variant,effect of a mutation on the interaction
1,F620A,disrupting interaction

# Variants of: B1
# Details: with hoil1_human RBCK1, Q9BYM8
# Remark: another data set of the same source
row,Variant,effect of a mutation on the interaction
1,F620A,decreasing interaction

# Variants of: B1
# Details: with hoil1_human RBCK1, Q9BYM8
# Remark: another data set of the same source
row,Variant,effect of a mutation on the interaction
1,Q613A,disrupting interaction

# Variants of: B1
# Details: with hoil1_human RBCK1, Q9BYM8
# Remark: another data set of the same source
row,Variant,effect of a mutation on the interaction
1,Q613A,decreasing interaction
2,L617A,decreasing interaction

# Variants of: B1
# Details: with hoil1_human RBCK1, Q9BYM8
# Remark: another data set of the same source
row,Variant,effect of a mutation on the interaction
1,L617A,disrupting interaction

# Variants of: B1
# Details: with hoil1_human RBCK1, Q9BYM8
# Remark: another data set of the same source
row,Variant,effect of a mutation on the interaction
1,R623A,disrupting interaction
